Data published in patent publication US20060084085A1, “Methods and compositions for modulating Bax-mediated apoptosis” (priority 2004, published 2006).

Legend:
Ku70 acetylation = Ku70 acetylation level in cells (Ku70 IP, panAc-K antibody blot); type: cell-based, human; details: HeLa cells, NAM 5 mM, TSA 1 μM, normalized to DMSO treatment
Experimental: Briefly, HeLa cells were grown under one of the following conditions: 0.10/6 DMSO, 1 μM TSA, 5 mM nicotinamide (NAM), or TSA and NAM. Ku70 was immunoprecipitated from whole-cell extracts and probed for lysine acetylation using a panAc-Lys Ab.
To determine which class of deacetylase targets Ku70 in vivo, cells were treated with either TSA or NAM and the acetylation level of Ku70 was detected using the panAc-K antibody.
For immunoprecipitation (IP) of Ku70, 1 mg of protein was precleared by incubation with protein A/G Sepharose beads (Santa Cruz). The supernatant was incubated with agarose-conjugated goat polyclonal anti-Ku70 antibody (Santa Cruz), followed by three washes in 1% triton in PBS. The immunocomplex was separated by SDS-PAGE and proteins were detected with a rabbit polyclonal anti-pan-acetyl-lysine (panAc-K) antibody raised against acetylated rabbit's serum.

293T cells = test: Bax-mediated apoptosis in 293T cells transfected with YFP-Bax and Ku70 (apoptotic nuclei scored); type: cell-based, human; details: for effect on the ability of Ku70 to suppress Bax-mediated apoptosis: 293T cells cotransfected with YFP-Bax and Ku70, apoptotic nuclei scored 24 hr posttransfection
PCAF = molecular target: T1, PCAF (Homo sapiens, UniProt Q92831); test: In vitro acetylation assay of Ku70 peptides with PCAF HAT domain and 3H-acetyl-CoA; type: biochemical; design: key to Relative Intensity of Acetylation: +: Band intensity was measured using NIH ImageJ software and normalized to the intensity of peptide 3.; ++: Band intensity was measured using NIH ImageJ software and normalized to the intensity of peptide 3.; +++: Band intensity was measured using NIH ImageJ software and normalized to the intensity of peptide 3.; +++++: Band intensity was measured using NIH ImageJ software and normalized to the intensity of peptide 3; details: for acetylation of peptide by PCAF in vitro: HAT domain of PCAF, 3H-acetyl-CoA, autoradiography; for Relative Intensity of Acetylation: Ku70 peptides acetylated by PCAF in vitro, band intensity normalized to peptide 3
T1 construct: 100 ng of recombinant HAT domains of p300, PCAF, or CBP
Experimental: FIG. 2B is a schematic representation of the synthetic peptide library spanning the entire length of Ku70. Each peptide was incubated with PCAF and 3H-acetyl-CoA and analyzed as in FIG. 2A.
(§1) FIG. 2C is a series of photographs showing acetylation peptides 16 and 29 as resolved by SDS-PAGE (PCAF reaction, left panel; CBP reaction, right panel). The acetylated domain of p53 (aa 315-325) served as a positive control for acetylation.
(§2) FIG. 2D is a photograph showing acetylation results of a series of scanning synthetic peptides of peptide 29. These scanning synthetic peptides were synthesized, with three out of the four lysines (K) substituted for arginine (R), a residue that cannot be acetylated. Peptides were incubated in acetylation reactions with PCAF or CBP and resolved by SDS-PAGE as above.
(§3) Due to the strong interaction between Ku70 and CBP and the efficient acetylation of Ku70 in vitro, we sought to define the regions of Ku70 that are targeted for acetylation. A library of 31 peptides was synthesized to cover the entire Ku70 sequence (FIG. 2B). Each of these peptides was incubated in an acetylation reaction as above, with either the HAT domain of PCAF or CBP. Again, a p53 peptide served as a positive control. […] Peptide 29 ([…]541-562), which contains four lysines (K542, K544, K553, and K556), is located within the C-terminal flexible linker region that we had previously identified as a potential target for acetylation (see FIG. 1 B).
(§4) To determine which lysines in peptide 29 were being acetylated in the reaction, a series of substitutions were made in which three out of the four lysines were replaced with arginine, a residue that cannot be acetylated. Each peptide was then incubated with either PCAF or CBP and analyzed by autoradiography as above.
(§5) Protein acetyltransferase assays were performed in 30 μl of reaction buffer containing 50 mM HEPES (pH 8.0), 10% glycerol, 1 mM DTT, 1 mM PMSF, 10 mM Na-butyrate, 1 μL (3H]-acetyl-CoA, 1 μg recombinant Ku70/80 complex or Ku70 peptide, and 100 ng of recombinant HAT domains of p300, PCAF, or CBP. Reactions were incubated at 30° C. for 1 hr and separated by SDS-PAGE (10%), stained with Coomassie blue, treated with EN^3HANCE autoradiography enhancer (NEN), dried, and exposed to film for 3-7 days. p53 peptides used as positive controls were p53315-3235 and p53377-389.

CBP = molecular target: T2, CBP (Homo sapiens, UniProt Q92793); test: In vitro acetylation assay of Ku70 peptides with CBP HAT domain and 3H-acetyl-CoA; type: biochemical; details: autoradiography
T2 construct: 100 ng of recombinant HAT domains of p300, PCAF, or CBP
Excerpt: as §1, §2, §3, §4, §5

T2 sequence (Q92793 1323-1700 limits assumed): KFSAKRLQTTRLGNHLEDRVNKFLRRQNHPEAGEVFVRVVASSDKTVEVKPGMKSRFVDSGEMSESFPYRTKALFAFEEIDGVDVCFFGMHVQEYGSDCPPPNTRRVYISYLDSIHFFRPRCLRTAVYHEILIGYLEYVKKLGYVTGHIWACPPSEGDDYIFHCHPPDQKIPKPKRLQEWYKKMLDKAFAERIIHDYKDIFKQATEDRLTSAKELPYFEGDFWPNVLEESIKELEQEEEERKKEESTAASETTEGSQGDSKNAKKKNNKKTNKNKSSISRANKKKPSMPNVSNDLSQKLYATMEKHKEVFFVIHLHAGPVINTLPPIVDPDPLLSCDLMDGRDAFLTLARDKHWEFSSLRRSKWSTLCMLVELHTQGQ
T1 sequence (Q92831 503-651 limits assumed): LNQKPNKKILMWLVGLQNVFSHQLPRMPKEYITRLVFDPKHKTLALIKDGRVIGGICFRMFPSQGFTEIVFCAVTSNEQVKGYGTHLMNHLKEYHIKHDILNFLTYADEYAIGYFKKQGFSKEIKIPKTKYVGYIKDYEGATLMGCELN

Row | Compound | acetylation of peptide by PCAF in vitro (PCAF) | Relative Intensity of Acetylation (PCAF) | acetylation of peptide by CBP in vitro (CBP) | increase in total acetylation level of Ku70 (Ku70 acetylation) | effect on the ability of Ku70 to suppress Bax-mediated apoptosis (293T cells) | suppression of Bax-mediated apoptosis (293T cells; 293T cells, YFP-Bax and Ku70, resveratrol 0, 50 or 100 nM added 12 hrs after transfection, scored 24 hrs post-transfection)
1 | NC(=O)c1cccnc1 [NAM, nicotinamide] | – | – | – | 1.8 fold | abrogated the ability of Ku70 to suppress apoptosis | –
2 | CC(/C=C/C(=O)NO)=C\[C@@H](C)C(=O)c1ccc(N(C)C)cc1 [TSA, trichostatin A] | – | – | – | 2.4 fold | apoptosis suppression was completely blocked | –
3 | Oc1ccc(/C=C/c2cc(O)cc(O)c2)cc1 [resveratrol, 3,5,4′-Trihydroxy-trans-stilbene] | – | – | – | – | – | dose-dependent suppression of Bax-mediated apoptosis
4 | ASKAMFESQSEDELT [Peptide 3, Ku70 peptide, amino acids 44-58] | acetylated by PCAF | + | – | – | – | –
5 | KRRR: peptide 29 variant retaining K542, the other three lysines replaced with arginine (TKRRHDNEGSGSRRPRVEYSEE) | acetylated to almost the same extent as the original peptide 29 | – | acetylated to almost the same extent as the original peptide 29 | – | – | –
6 | VQFKMSHKRIMLFTNED [Peptide 8, Ku70 peptide, amino acids 157-173] | acetylated by PCAF | ++ | – | – | – | –

More lines, main results first:

Row | acetylation of peptide by PCAF in vitro (PCAF) | Relative Intensity of Acetylation (PCAF) | acetylation of peptide by CBP in vitro (CBP) | Compound | increase in total acetylation level of Ku70 (Ku70 acetylation) | effect on the ability of Ku70 to suppress Bax-mediated apoptosis (293T cells) | suppression of Bax-mediated apoptosis (293T cells; 293T cells, YFP-Bax and Ku70, resveratrol 0, 50 or 100 nM added 12 hrs after transfection, scored 24 hrs post-transfection)
7 | acetylated by PCAF | +++ | – | LLLPSDTKRSQIY [Peptide 15, Ku70 peptide, amino acids 310-322] | – | – | –
8 | strongly acetylated | +++ | strongly acetylated | RQIILEKEETEELKRFD [Peptide 16, Ku70 peptide, amino acids 325-341] | – | – | –
9 | weakly acetylated | – | weakly acetylated | RRKR: peptide 29 variant retaining K553, the other three lysines replaced with arginine (TRRRHDNEGSGSKRPRVEYSEE) | – | – | –
10 | strongly acetylated | +++++ | strongly acetylated | TKRKHDNEGSGSKRPKVEYSEE [Peptide 29, Ku70 peptide, amino acids 541-562] | – | – | –
